Reference: patent publication US20070202079A1, “Therapeutic compositions and methods useful in modulating protein tyrosine phosphatases” (priority 2006, published 2007)
Blank lines part the entries; values can stand above or below the molecule they belong to.

What was measured:
[1] = target: T1, SHP-1 (Mus musculus, UniProt P29351); experiment: in vitro PTPase assay, GST/SHP-1; type: biochemical
T1 construct: made in house
Procedure: In vitro PTPase activities were measured using the commercial protein tyrosine phosphatase assay kit (Upstate Biotechnology, Inc. (“UBI”)) following established procedure known to one of skill in the art. […] Briefly, 0.01 μg of GST/PTPase fusion proteins was incubated in 50 μl of Tris buffer (10 mM Tris, pH 7.4) containing different concentrations of inhibitors or chemicals (0-1,000 μg/ml) at 22° C. for 10 minutes, followed by addition of 0.2 mM of the phosphotyrosine peptide and incubation at 22° […] 100 μl of Malachite Green solution was added and incubated for 5 minutes, and the absorbance at 660 nm was measured after 5 minutes.
To assess the reversibility of inhibition of SHP-1 by PTPase inhibitors, GST/SHP-1 fusion protein bound on glutathione beads were pre-incubated in cold Tris buffer or Tris buffer containing the PTPase inhibitors at 4° C. for 30 minutes. The beads were then either subjected to in vitro PTPase assays or washed 3 times in Tris buffer then subjected to in vitro PTPase assays.
Briefly, individual PTPases (0.1 μg/reaction) in 50 μL of PTPase buffer (50 mM Tris, pH 7.4) were incubated at 22° C. for 10 minutes or as indicated in the absence or presence of inhibitory compounds. Substrates (0.2 mM phosphotyrosine peptide) were then added and allowed to react at 22° C. for 18 hrs. PTPase activity of individual reactions was measured by adding 100 μL of malachite green solution (UBI) and then quantifying the amounts of free phosphate cleaved by the PTPase from the peptide substrate by spectrometry (OD660 nm). […] Relative PTPase activities were calculated based on the formula: (PTPase activity in the presence of an inhibitory compound/PTPase activity in the absence of the compound)× 100%. To assess the reversibility of PTPase inhibition, GST fusion proteins of the PTPases bound on glutathione beads (Pharmacia) were pre-incubated with cold Tris buffer (50 mM Tris, pH 7.0) or Tris buffer containing the inhibitor at 4° C. for 30 minutes. The beads were then washed three times in cold Tris buffer or not washed prior to subjecting to in vitro PTPase assays.

[2] = target: T2, PRL-3 (Homo sapiens, UniProt O75365); experiment: in vitro PTPase assay, recombinant PRL-3; type: biochemical; settings: DiFMUP substrate
T2 construct: cDNAs of human PRL-1, PRL-2 and PRL-3 coding region were derived by RT-PCR; made in house; host or cells: DH5a bacteria (E. coli)
Text: Sodium stibogluconate, suramin, sodium orthovanadate and GST fusion protein of SHP-1 have been described previously (Pathak et al., J. Immunol. 167, 3391 (2001)). Meglumine antimonate was obtained from Aventis. cDNAs of human PRL-1, PRL-2 and PRL-3 coding region were derived by RT-PCR from H9 cells (Safai, et al., Lancet 1, 1438 (1984)) and inserted in frame into the pGEX vector. cDNA of PRL-1R86 was generated by recombinant DNA technique using PRL-1 cDNA as template following established procedures (Jiao, et al., Mol. Cell. Biol. 16, 6985 (1996)). GST fusion proteins of the PRL phosphatases were prepared from DH5a bacteria transformed with the pGEX fusion protein constructs as described previously (Yi, et al., Mol. Cell. Biol. 12, 836 (1992)). cDNAs encoding the PRLs tagged at the N-termini with the Flag epitope (Castrucci, et al., J. Virol. 66, 4647 (1992)) were generated via recombinant DNA technique, sequenced to confirm their identities and cloned into the pBabepuro vector (Yang, et al., Blood 91, 3746 (1998)). Anti-Flag monoclonal antibody (M2, Sigma) was purchased from a commercial source. A synthetic phosphotyrosine peptide (Arg-Arg-Leu-Ile-Glu-Asp-Ala-Gle-Tyr-Al- -a-Ala-Arg-Gly (SEQ ID NO: 3), wherein the tyrosine is phosphorylated; UBI) and DiFMUP (6, 8-difluoro-4-methylumbelliferyl phosphate, Molecular Probes) were purchased as substrates for PTPase assays.
In vitro PTPase assays were used to determine the effects of compounds on recombinant PTPases, following established procedures using a synthetic phosphotyrosine peptide or DiFMUP as the substrate (Pathak et al., J. Immunol. 167, 3391 (2001)). Briefly, individual PTPases (0.1 μg/reaction) in 50 μL of PTPase buffer (50 mM Tris, pH 7.4) were incubated at 22° C. for 10 minutes or as indicated in the absence or presence of inhibitory compounds. Substrates (0.2 mM phosphotyrosine peptide) were then added and allowed to react at 22° C. for 18 hrs. PTPase activity of individual reactions was measured by adding 100 μL of malachite green solution (UBI) and then quantifying the amounts of free phosphate cleaved by the PTPase from the peptide substrate by spectrometry (OD660 nm). PTPase assays using DiFMUP as a substrate were conducted following a previously described procedure (Matter, et al., Biochem. Biophys. Res. Comm. 283, 1061 (2001)). Relative PTPase activities were calculated based on the formula: (PTPase activity in the presence of an inhibitory compound/PTPase activity in the absence of the compound)× 100%. To assess the reversibility of PTPase inhibition, GST fusion proteins of the PTPases bound on glutathione beads (Pharmacia) were pre-incubated with cold Tris buffer (50 mM Tris, pH 7.0) or Tris buffer containing the inhibitor at 4° C. for 30 minutes. The beads were then washed three times in cold Tris buffer or not washed prior to subjecting to in vitro PTPase assays.

[3] = system: GSTm8; experiment: in vitro PTPase assay, GSTm8; type: biochemical; settings: 3-4 μg/ml or 10-100 μg/ml
Text: (§1) In vitro PTPase assays were used to determine the effects of levamisole (Sigma), pentamidine (American Pharmaceutical Partners, Inc.), and ketoconazole (Sigma) on recombinant PTPases, following established procedures (Pathak et al., J. Immunol. 167, 3391 (2001); Pathak et al., Leukemia 16, 2285 (2002), Yi et al., J. Immunol. 169, 5978 (2002)) using a synthetic phosphotyrosine peptide or DiFMUP as the substrate as detailed above in section I.A.2.

[4] = target: T3, MKP1 (Homo sapiens, UniProt P28562); experiment: in vitro PTPase assay, GST/MKP1; type: biochemical; settings: levamisole, pentamidine, ketoconazole
T3 construct: a pGEX construct containing the coding region of MKP1 cDNA derived by RT-PCR; made in house; host or cells: DH5a bacteria (E. coli)
T3 sequence (P28562 1-367): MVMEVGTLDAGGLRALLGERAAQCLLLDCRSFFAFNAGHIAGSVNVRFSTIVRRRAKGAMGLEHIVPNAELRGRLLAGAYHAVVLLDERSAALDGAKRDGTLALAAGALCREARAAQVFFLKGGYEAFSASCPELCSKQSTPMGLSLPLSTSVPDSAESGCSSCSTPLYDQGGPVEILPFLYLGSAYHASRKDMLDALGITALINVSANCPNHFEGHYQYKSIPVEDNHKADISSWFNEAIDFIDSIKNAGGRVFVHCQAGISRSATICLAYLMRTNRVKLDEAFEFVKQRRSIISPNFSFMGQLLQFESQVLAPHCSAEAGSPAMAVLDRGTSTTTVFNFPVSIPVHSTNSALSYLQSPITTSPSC
Procedure: In vitro PTPase activities were measured using the commercial protein tyrosine phosphatase assay kit (Upstate Biotechnology, Inc. (“UBI”)) following established procedure known to one of skill in the art. This assay measures the in vitro dephosphorylation of a synthetic phosphotyrosine peptide of the sequence Arg-Arg-Leu-Ile-Glu-Asp-Ala-Gle-T- -yr-Ala-Ala-Arg-Gly, wherein the tyrosine is phosphorylated (SEQ ID NO: 3). Briefly, 0.01 μg of GST/PTPase fusion proteins was incubated in 50 μl of Tris buffer (10 mM Tris, pH 7.4) containing different concentrations of inhibitors or chemicals (0-1,000 μg/ml) at 22° C. for 10 minutes, followed by addition of 0.2 mM of the phosphotyrosine peptide and incubation at 22° C. for 18 hours. 100 μl of Malachite Green solution was added and incubated for 5 minutes, and the absorbance at 660 nm was measured after 5 minutes.
as §1

[5] = system: T4, Synthetic phosphotyrosine peptide Arg-Arg-Leu-Ile-Glu-Asp-Ala-Gle-Tyr-Ala-Ala-Arg-Gly (SEQ ID NO: 3), tyrosine phosphorylated
T4 sequence: RRLIEDAEYAARG

[6] = target: T5, Synthetic phosphotyrosine peptide Arg-Arg-Leu-Ile-Glu-Asp-Ala-Gle-Tyr-Ala-Ala-Arg-Gly (SEQ ID NO: 3), tyrosine phosphorylated (not fully specified)
T5 chain: RRLIEDAEYAARG

T2 sequence (O75365 whole entry): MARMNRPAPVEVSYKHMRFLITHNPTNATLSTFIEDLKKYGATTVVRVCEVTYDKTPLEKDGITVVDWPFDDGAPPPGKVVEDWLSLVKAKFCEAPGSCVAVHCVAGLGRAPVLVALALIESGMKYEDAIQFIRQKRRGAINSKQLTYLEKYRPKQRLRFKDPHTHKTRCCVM

- inhibition of SHP-1 compared with sodium stibogluconate ([1]; comparable conditions): less effective
- inhibition of PRL-3 compared with sodium stibogluconate [2]: less effective
Molecule: Cc1ccc(C(=O)Nc2ccc(S(=O)(=O)O)c3cc(S(=O)(=O)O)cc(S(=O)(=O)O)c23)cc1NC(=O)c1cccc(NC(=O)Nc2cccc(C(=O)Nc3cc(C(=O)Nc4ccc(S(=O)(=O)O)c5cc(S(=O)(=O)O)cc(S(=O)(=O)O)c45)ccc3C)c2)c1 [Suramin]
- inhibition of GST/SHP-1 after washing (reversibility) ([1]; pre-incubated 30 min at 4 °C, beads washed 3 times): almost completely removed by the washing process

- inhibitory activity against GSTm8 [3]: no obvious inhibitory activity
- inhibitory activity against SHP-1 ([1]; 3-4 μg/ml or 10-100 μg/ml): no obvious inhibitory activity
- inhibition of MKP1 [4]: substantial inhibition
Molecule: c1ccc([C@H]2CN3CCSC3=N2)cc1 [levamisole]

Molecule: GST fusion protein of SHP-1
- PTPase activities against the peptide substrate (660 nm absorbance above background) [5]: 660 nm absorbance approximately 0.6 above background (0.03)

Molecule: GST fusion protein of protein tyrosine phosphatase 1B (PTP1B)
- PTPase activities against the peptide substrate (660 nm absorbance above background) [5]: 660 nm absorbance approximately 0.6 above background (0.03)

Molecule: GST fusion protein of SHP-2
- PTPase activities against the peptide substrate (660 nm absorbance above background) [5]: 660 nm absorbance approximately 0.6 above background (0.03)

Molecule: GST fusion protein of mitogen-activated protein kinase phosphatase 1 (MKP1)
- PTPase activities against the peptide substrate (660 nm absorbance above background) [5]: 660 nm absorbance approximately 0.6 above background (0.03)

Molecule: [Na+].[Na+].[Na+].[O]=[V]([O-])([O-])[O-] [sodium orthovanadate]
- inhibition of PRL-3 compared with sodium stibogluconate [2]: less effective

B1: GST fusion protein of PRL-1R86 (recombinant PRL-1 protein containing R86) (protein)
chain: MARMNRPAPVEVTYKNMRFLITHNPTNATLNKFIEELKKYGVTTIVRVCEATYDTTLVEKEGIHVLDWPFDDGAPPSNQIVDDWLRLVKIKFREEPGCCIAVHCVAGLGRAPVLVALALIEGGMKYEDAVQFIRQKRRGAFNSKQLLYLEKYRPKMRLRFKDSNGHRNNCCIQ
- in vitro PTPase activity [6]: showed in vitro PTPase activity similar to that of wild type PRL-1

B2: Flag-PRL-1 (human PRL-1 tagged at the N-terminus with the Flag epitope) (protein)
chain: MARMNRPAPVEVTYKNMRFLITHNPTNATLNKFIEELKKYGVTTIVRVCEATYDTTLVEKEGIHVLDWPFDDGAPPSNQIVDDWLSLVKIKFREEPGCCIAVHCVAGLGRAPVLVALALIEGGMKYEDAVQFIRQKRRGAFNSKQLLYLEKYRPKMRLRFKDSNGHRNNCCIQ
- PTPase activity of anti-Flag immunocomplexes [6]: a markedly higher PTPase activity (about 23 folds) over that of control transfectants
- phosphatase activities of anti-Flag immunocomplexes [6]: showed phosphatase activities well above the background activity of the vector control cells

B3: Flag-PRL-1R86 (Flag-tagged PRL-1 R86 mutant) (protein)
chain: MARMNRPAPVEVTYKNMRFLITHNPTNATLNKFIEELKKYGVTTIVRVCEATYDTTLVEKEGIHVLDWPFDDGAPPSNQIVDDWLRLVKIKFREEPGCCIAVHCVAGLGRAPVLVALALIEGGMKYEDAVQFIRQKRRGAFNSKQLLYLEKYRPKMRLRFKDSNGHRNNCCIQ
- phosphatase activities of anti-Flag immunocomplexes [6]: showed phosphatase activities well above the background activity of the vector control cells

B4: GST fusion protein of PRL-1 (recombinant wild type PRL-1) (protein)
chain: MARMNRPAPVEVTYKNMRFLITHNPTNATLNKFIEELKKYGVTTIVRVCEATYDTTLVEKEGIHVLDWPFDDGAPPSNQIVDDWLSLVKIKFREEPGCCIAVHCVAGLGRAPVLVALALIEGGMKYEDAVQFIRQKRRGAFNSKQLLYLEKYRPKMRLRFKDSNGHRNNCCIQ
- in vitro PTPase activity [6]: showed in vitro PTPase activity similar to that of wild type PRL-1
